US20130344053A1, “Methods of Modifying Insulin Signaling Using Biliverdin Reductase (BVR) and BVR Derived Peptides” (University of Rochester, priority 2010, published 2013)

Legend:
human BVR = biological target: T1, human BVR (Homo sapiens, UniProt P53004); assay: BVR autophosphorylation; type: biochemical; conditions: 20 mM Zn acetate, pH 8.4; also with Mn^+2
T1 construct: made in house; host or cells: E. coli (pGEX 4T-2/hBVR)
T1 sequence (P53004 1-296 A154S/G155D/E160D): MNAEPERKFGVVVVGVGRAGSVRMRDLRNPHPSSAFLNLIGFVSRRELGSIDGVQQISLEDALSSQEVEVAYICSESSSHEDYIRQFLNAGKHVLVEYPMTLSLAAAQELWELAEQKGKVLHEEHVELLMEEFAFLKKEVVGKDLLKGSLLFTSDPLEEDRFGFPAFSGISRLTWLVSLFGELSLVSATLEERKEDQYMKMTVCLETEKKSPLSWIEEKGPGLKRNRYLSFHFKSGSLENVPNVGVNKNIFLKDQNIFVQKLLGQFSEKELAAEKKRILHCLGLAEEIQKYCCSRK
Description: In FIG. 9A, effect of tyrosine mutations of BVR on its autophosphorylation is shown. Human wtBVR and BVR with mutations in tyrosine were used in the experiment to determine autophosphorylation of BVR. The reactions were performed as described in the Examples. FIG. 9B is a graph showing that BVR tyrosine kinase activity was checked by incubating 5 μg purified BVR with 5 μg Raytide in 50 μl kinase buffer containing 10 μM labeled ATP for 2 h at 30° C. The aliquots of the reaction were transferred onto P81 Whatman filters and radioactivity due to phosphorylation was measured using a scintillation counter.
FIGS. 10A-B illustrate that autophosphorylation of BVR is an Mn^+2 dependant kinase reaction. […] The effects of different metal ions (30 mM MnCl2, 20 mM MgCl2, 20 mM CaCl2, 20 mM Zn acetate) and their combinations were analyzed as indicated in the text. […] Phosphorylation of wtBVR by IRK in the presence of tyrosine kinase inhibitor genestein (200 μM); DMSO was used as the vehicle for genestein and was included in the control reaction mixture. The reactions were carried out in HEPES buffer (pH 8.0) in the presence of 20 mM MgCl2 as described in the Examples.
(§1) To detect autophosphorylation of BVR, GST-hBVR of wild type (wt) and mutant variants were incubated in 50 mM HEPES buffer (pH 8.4) in the presence of 30 mM MnCl2 and 1 mM DTT for 2 h at 30° C. The reaction was started with the addition of 10 μM ATP labeled with 10 μCi [γ-^32P]-ATP and was stopped with the addition of Laemmli sample buffer. Samples were boiled for 3 min and applied to a 8% SDS-PAGE gels, transferred to a PVDF membrane, and then visualized by autoradiography. […] The reaction was started with the addition of ATP and terminated by adding 120 μl 10% H3PO4. 100 μl aliquots were directly transferred to P81 Whatman filters which were subsequently washed extensively in 0.75% phosphoric acid at room temperature. Finally, the filters were submerged in acetone for 5 min, dried, and retained counts were measured using a Beckman LS 6500 liquid scintillation counter (Beckman Coulter, Fullerton, Calif.).

BVR [1] = assay: BVR reductase activity in insulin-treated 293A cells; type: cell-based, human; conditions: insulin 50 nM, measured 1 h after treatment
Description: FIG. 12A-D illustrates that “knock-down” BVR and Y^198 detection increased glucose uptake into 293A cells upon insulin induction. As shown in the graph of FIG. 12A, insulin treatment increases BVR activity. 293A cells were treated with insulin (50 nM) and subsequently used at indicated time points for BVR activity measurement. […] Purified BVR was phosphorylated by IRK for the indicated periods. Reactions were terminated by diluting with PBS and freezing at −20° C. BVR activity was determined as in FIG. 12A, and normalized to that of the control (43.8 μmol per min per mg). […] 293A cells were incubated with insulin and after 8 min or 30 min, subjected to immunoprecipitation using anti-human BVR antibodies. The phosphorylated BVR was visualized by immunoblotting using anti-tyrosine antibodies. ECL system was used for visualization of phosphorylated BVR. […]
293A cells treated with insulin were lysed in buffer containing a protease inhibitor cocktail and phosphatase inhibitors (10 mM NaF, 1 mM NaVO4). BVR activity was measured at pH 6.7 using NADH as the cofactor as described previously (Huang et al., J. Biol. Chem. 264:7844-9 (1989), which is hereby incorporated by reference in its entirety). The rate of conversion of biliverdin to bilirubin was determined as the increase in absorbance at 450 nm at 25° C. Specific activity is expressed as μmol of bilirubin/min/mg of protein.

BVR [2] = assay: BVR tyrosine phosphorylation in insulin-treated 293A cells (immunoprecipitation/immunoblot); type: cell-based, human; conditions: within 8 min after insulin treatment
Description: FIG. 12A-D illustrates that “knock-down” BVR and Y^198 detection increased glucose uptake into 293A cells upon insulin induction. As shown in the graph of FIG. 12A, insulin treatment increases BVR activity. 293A cells were treated with insulin (50 nM) and subsequently used at indicated time points for BVR activity measurement. […] Purified BVR was phosphorylated by IRK for the indicated periods. Reactions were terminated by diluting with PBS and freezing at −20° C. BVR activity was determined as in FIG. 12A, and normalized to that of the control (43.8 μmol per min per mg). […] 293A cells were incubated with insulin and after 8 min or 30 min, subjected to immunoprecipitation using anti-human BVR antibodies. The phosphorylated BVR was visualized by immunoblotting using anti-tyrosine antibodies. ECL system was used for visualization of phosphorylated BVR. In FIG. 12D, the effect of insulin treatment on glucose uptake cells infected with siBVR or Y^198 mutant BVR were treated with insulin for 15 min and subsequently incubated in 1 ml PBS containing 5 mM glucose and 1 μCi/ml-2-deoxy-1 [^3H] glucose (2DG) for 15 min. Cells were washed with cold PBS and lysed by addition of 1% (w/v) SDS to each well. […]
293A Cells were plated in 10 cm plates and transfected with appropriate plasmids. […] Protein concentration was determined by Bradford assay (Bio-Rad, Hercules, Calif.). […]

[3] = biological target: T2, Peptide 1, mutant IRS-1 peptide (Lys-Lys-His-Ala-Asp-Asp-Gly-Ala-Met-Pro-Met-Ser-Pro-Gly-Val-Ala)
T2 chain: KKHADDGAMPMSPGVA

[4] = biological target: T3, Peptide 2, IRS-1 peptide (Arg-Thr-Glu-Ser307-Ile-Thr-Ala-Thr-Ser312-Pro-Ala-Ser315-Met-Val-Gly-Gly-Lys-Pro)
T3 chain: RTESITATSPASMVGGKP

[5] = biological target: insulin receptor substrate-1 (IRS-1) peptide Y^608
IRS-1 = assay: BVR kinase activity with IRS-1 as substrate (wt vs G17 mutant); type: biochemical; conditions: mutation in ATP binding domain compared with wtBVR
Description: BVR containing mutations on threonine 202 and serine residues, as indicated in the figure, were subjected to autophosphorylation analysis as described in the text. […] 5 μg purified BVR was incubated with 5 μg IRS-1 or HO-1 or HO-2, used as a control for kinase activity, and MBP which was used as the substrate control in 50 μl kinase buffer as described in the Examples. […] Mutant G^17 was compared with wtBVR as a kinase for IRS.
as §1

Molecule: CC(=O)[O-].CC(=O)[O-].[Zn+2] [Zn^+2, Zn acetate, reference compound]
- BVR autophosphorylation in presence of metal ion (human BVR): inhibitory to BVR autophosphorylation

Molecule: insulin: Human insulin purchased from Sigma-Aldrich
- increase in BVR reductase activity (BVR [1]): 2 fold
- BVR tyrosine phosphorylation (BVR [2]): dramatic increase in phosphorylation

B1: GST-hBVR fusion protein, wild type (human biliverdin reductase fused to glutathione-S-transferase) (protein)
chain: T1 sequence (P53004 1-296 A154S/G155D/E160D)
- phosphorylation of IRS-1 peptide by BVR (32P, cpm) [3]: both the mutated and unmutated peptides were phosphorylated to about the same extent (1049±78 cpm and 1081±183 cpm respectively)
- phosphorylation of IRS-1 peptide by BVR (32P, cpm) [4]: this peptide is also a suitable substrate for BVR (1198±230 cpm)
- phosphorylation of BVR by IRK in the presence of increasing molar ratio of IRS/BVR [5]: in the presence of increasing amounts of IRS, there was an increase in phosphorylation of BVR by IR up to equimolar ratio of IRS/BVR
- phosphorylation of IRS-1 peptide by BVR (32P, cpm) [5]: both the mutated and unmutated peptides were phosphorylated to about the same extent (1049±78 cpm and 1081±183 cpm respectively)

B2: G^17: human BVR point mutant GVGRA to GVARA in ATP binding domain (protein, UniProt P53004 3-296, looked up, variant G17A)
Biliverdin reductase A: AEPERKFGVVVVGVARAGSVRMRDLRNPHPSSAFLNLIGFVSRRELGSIDGVQQISLEDALSSQEVEVAYICSESSSHEDYIRQFLNAGKHVLVEYPMTLSLAAAQELWELAEQKGKVLHEEHVELLMEEFAFLKKEVVGKDLLKGSLLFTAGPLEEERFGFPAFSGISRLTWLVSLFGELSLVSATLEERKEDQYMKMTVCLETEKKSPLSWIEEKGPGLKRNRYLSFHFKSGSLENVPNVGVNKNIFLKDQNIFVQKLLGQFSEKELAAEKKRILHCLGLAEEIQKYCCSRK
- IRS phosphorylation by BVR (IRS-1): for the most part, prevented IRS phosphorylation by BVR
